First the molecules themselves.
B1: Calcium-binding protein 2, residues 155 to 219; numbered along this chain, Q9NPB3 (parent)
chain: RELRDAFREFDTNGDGRISVGELRAALKALLGERLSQREVDEILQDVDLNGDGLVDFEEFVRMMS

± gives the uncertainty stated by the source.

The variants in this series derive from B1. The series is described as follows: abundance fitness (aPCA) (normalised: wild type 0, dead -1); higher = more abundant; growth selection in yeast, the domain comes from the species named. The settings on record: Homo sapiens.
In the case of M64K, the abundance fitness was -0.075 ± 0.15. The figure for M64Y is 0.209 ± 0.088; for M64L it is -0.025 ± 0.05; for G21C it is -0.244 ± 0.23. The figure for G21V is -0.061 ± 0.039; for G21K it is -0.193 ± 0.077.

As to G21W, the abundance fitness is -0.423 ± 0.2. To G21R belongs -0.196 ± 0.053; to G21S, -0.026 ± 0.066. As for R38Q, the abundance fitness is -0.212 ± 0.21. The figure for R38W is -0.107 ± 0.061. With R38Y, the abundance fitness was -0.114 ± 0.14. To R38C belongs -0.079 ± 0.08; to R38N, 0.085 ± 0.1; to A6R, 0.089 ± 0.044. The figure for A6P is -0.952 ± 0.1; for A6K it is 0.157 ± 0.088; for A6S it is -0.011 ± 0.087.

With A6T, the abundance fitness is 0.173 ± 0.061.

Regarding A6G, the abundance fitness was -0.328 ± 0.048. The figure for G14P is -0.621 ± 0.081. To G14M belongs -0.308 ± 0.11; to G14L, -0.226 ± 0.079.

For the variant G14V, the abundance fitness was -0.672 ± 0.067. To T12V belongs -0.351 ± 0.072. To T12M belongs -0.349 ± 0.087. To T12L belongs -0.279 ± 0.07; to D46Y, -0.475 ± 0.22. Turning to D46R, the abundance fitness was -0.493 ± 0.066. To D46N belongs -0.2 ± 0.11; to D46H, -0.366 ± 0.16. The figure for D46I is -0.408 ± 0.12; for D46S it is -0.123 ± 0.069; for D46L it is -0.326 ± 0.1. The figure for D46V is -0.343 ± 0.083; for G51V it is 0.003 ± 0.06; for G51W it is -0.301 ± 0.062. Consider G51T, for which the abundance fitness came out at 0.006 ± 0.11. To G51D belongs 0.057 ± 0.16; to V47H, 0.057 ± 0.12. To V47M belongs -0.303 ± 0.088. As to V47I, the abundance fitness is -0.204 ± 0.048. In the case of V47D, the abundance fitness was -0.236 ± 0.053.

V47A: the abundance fitness is -0.143 ± 0.055. The figure for R1T is -0.007 ± 0.19; for K28T it is 0.002 ± 0.085; for K28G it is -0.077 ± 0.064. To K28C belongs -0.01 ± 0.13; to K28Y, -0.216 ± 0.35.

For K28V, the abundance fitness stood at 0.089 ± 0.07. The figure for Q37R is -0.087 ± 0.077; for Q37H it is -0.504 ± 0.27; for Q37A it is 0.003 ± 0.088.

On to Q37W, for which the abundance fitness is -0.031 ± 0.099. The figure for Q37K is 0.022 ± 0.14; for Q37N it is 0.221 ± 0.25. The figure for Q37D is -0.351 ± 0.42; for Q37S it is -0.104 ± 0.13. To F60C belongs -0.176 ± 0.077. As for F60A, the abundance fitness is -0.471 ± 0.074. For F60H, the abundance fitness is -0.875 ± 0.14. As for F60D, the abundance fitness was -0.71 ± 0.16. To F60P belongs -0.896 ± 0.11; to F60I, 0.116 ± 0.34. To F60S belongs -0.326 ± 0.073; to R62C, -0.124 ± 0.097; to R62G, -0.025 ± 0.068. Take R62Q: the abundance fitness is -0.145 ± 0.069. The figure for R62N is -0.111 ± 0.4. For R62F, the abundance fitness was -0.218 ± 0.17. The figure for Q45F is -0.263 ± 0.097.

With Q45K, the abundance fitness is -0.215 ± 0.19. The figure for Q45L is 0.015 ± 0.064.

With Q45Y, the abundance fitness was -0.16 ± 0.12. The figure for Q45E is -0.076 ± 0.092; for Q45D it is -0.144 ± 0.092. Turning to Q45G, the abundance fitness is -0.19 ± 0.12. To Q45P belongs -0.133 ± 0.073; to Q45H, -0.013 ± 0.22. To Q45A belongs -0.069 ± 0.061; to S36R, -0.004 ± 0.057; to S36L, 0.025 ± 0.054.

With S36F, the abundance fitness was -0.085 ± 0.13. To S36Y belongs -0.263 ± 0.18; to S36G, -0.093 ± 0.055; to F10M, -0.426 ± 0.12.

On to F10R, for which the abundance fitness is -0.1 ± 0.059. To F10D belongs -1.13 ± 0.17. The figure for F10G is -0.417 ± 0.081; for F10V it is -0.048 ± 0.065; for F10K it is -0.155 ± 0.12.

On to F10P, for which the abundance fitness was -0.864 ± 0.079.

Take V20K: the abundance fitness is -0.639 ± 0.23. To V20N belongs 0.081 ± 0.3; to V61H, 0.011 ± 0.13; to V61Q, -0.051 ± 0.13.

As for V61D, the abundance fitness worked out at 0.009 ± 0.17. To L3C belongs -1 ± 0.25; to L3T, -0.281 ± 0.081; to L3F, -0.113 ± 0.2.

For L3V, the abundance fitness was -0.15 ± 0.058. To L3M belongs 0.012 ± 0.068; to L3E, -0.274 ± 0.12; to L3I, -0.095 ± 0.2.

For the variant R8Q, the abundance fitness was -0.1 ± 0.087. Take R8T: the abundance fitness was 0.031 ± 0.11.

Turning to R8I, the abundance fitness is -0.156 ± 0.14. Regarding R8N, the abundance fitness is -0.023 ± 0.19. To D48Y belongs 0.042 ± 0.099; to D48T, 0.057 ± 0.098; to D48G, -0.529 ± 0.081.

Turning to D48R, the abundance fitness amounted to 0.185 ± 0.05. The figure for D48H is 0.108 ± 0.11; for D48K it is 0.152 ± 0.082.

For D48M, the abundance fitness came to 0.05 ± 0.11.

For the variant I43P, the abundance fitness was -0.032 ± 0.12. To I43G belongs 0.123 ± 0.069; to I43K, 0.053 ± 0.067; to I43A, 0.254 ± 0.091. To I43R belongs 0.03 ± 0.065; to D11H, -1.17 ± 0.26. To D11V belongs -1.02 ± 0.092; to D11Q, -0.434 ± 0.099; to D11P, -0.992 ± 0.13. Consider D11S, for which the abundance fitness was -0.633 ± 0.061. As to D11T, the abundance fitness was -0.769 ± 0.099. To R34V belongs -0.129 ± 0.088; to R34P, 0.01 ± 0.12; to R34F, -0.298 ± 0.24.

R34T: the abundance fitness amounted to 0.018 ± 0.062. The figure for R34W is -0.558 ± 0.22. Regarding R34A, the abundance fitness was determined as 0.045 ± 0.084. The figure for R34L is -0.177 ± 0.06. In the case of R34Q, the abundance fitness is 0.088 ± 0.11. To L35T belongs 0.028 ± 0.14. L35Y: the abundance fitness was 0.015 ± 0.16. To L35P belongs -0.02 ± 0.087; to L35V, -0.015 ± 0.089.

As for L35E, the abundance fitness was -0.109 ± 0.12. To L35I belongs 0.087 ± 0.15; to R4M, -0.144 ± 0.095; to R4Y, -0.544 ± 0.36. To R4Q belongs -0.21 ± 0.11. The figure for R4D is -0.052 ± 0.15. With R4L, the abundance fitness was -0.526 ± 0.069. To F7T belongs -0.713 ± 0.096; to F7R, -0.995 ± 0.062; to F7N, -1.44 ± 0.4.

In the case of F7H, the abundance fitness was -1.18 ± 0.35. Take E42S: the abundance fitness is -0.136 ± 0.077. The figure for E42C is -0.074 ± 0.2; for E42Y it is -0.309 ± 0.29.

Take E42V: the abundance fitness was -0.108 ± 0.088. The figure for E42M is -0.143 ± 0.14; for E42I it is -0.204 ± 0.11.

Consider L23A, for which the abundance fitness was 0.118 ± 0.072.

Regarding L23N, the abundance fitness is -0.213 ± 0.096.

Take L23P: the abundance fitness is -0.592 ± 0.12. Take L23M: the abundance fitness worked out at 0.025 ± 0.094. The figure for L23C is -0.139 ± 0.28; for L23V it is -0.133 ± 0.084. To G16C belongs -0.527 ± 0.11. The figure for G16P is -1.19 ± 0.13; for G16R it is -0.428 ± 0.06; for G16D it is 0.023 ± 0.12. Turning to G16E, the abundance fitness was -0.1 ± 0.1.

As for G16W, the abundance fitness was -0.454 ± 0.091.

The record behind these values is the Human Domainome abundance scans (Beltran et al. 2025).
